# Positions count from the first letter of the chain named. Numbers in names are those of the source.
# T1: FcγRIIb extracellular domain with C-terminal His tag (human, UniProt P31994 43-217)
# T1 construct: extracellular domain
# T1 sequence (looked up): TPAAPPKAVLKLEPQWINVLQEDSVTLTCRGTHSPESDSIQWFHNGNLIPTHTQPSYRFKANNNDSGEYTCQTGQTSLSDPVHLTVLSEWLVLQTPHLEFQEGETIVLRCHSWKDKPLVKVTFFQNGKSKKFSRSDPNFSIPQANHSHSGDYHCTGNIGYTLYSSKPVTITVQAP
# T2: FcγRIIa type R (allotype R131) extracellular domain with C-terminal His tag (human, UniProt P12318 34-217)
# T2 construct: extracellular domain; also called FcγRIIaR; FcγRIIa R type
# T2 sequence (looked up): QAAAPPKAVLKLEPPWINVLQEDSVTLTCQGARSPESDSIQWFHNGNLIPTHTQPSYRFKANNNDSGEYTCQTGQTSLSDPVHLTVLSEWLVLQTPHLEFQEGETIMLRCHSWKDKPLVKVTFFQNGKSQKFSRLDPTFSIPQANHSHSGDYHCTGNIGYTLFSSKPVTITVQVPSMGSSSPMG
# B1: IL6R-2B172/IL6R-L (antibody, human IgG1, kappa, name in EU numbering)
# heavy: QVQLQESGPGLVKPSETLSLTCAVSGHSISHDHAWSWVRQPPGEGLEWIGFISYSGITNYNPSLQGRVTISRDNSKNTLYLQMNSLRAEDTAVYYCARSLARTTAMDYWGEGTLVTVSSASTKGPSVFPLAPSSKSTSGGTAALGCLVKDYFPEPVTVSWNSGALTSGVHTFPAVLQSSGLYSLSSVVTVPSSSLGTQTYICNVNHKPSNTKVDKKVEPKSCDKTHTCPPCPAPELLGGDSVFLFPPKPKDTLMISRTPEVTCVVVDVSHEDPEVKFNWYVDGVEVHNAKTKPREEQYNSTYRVVSVLTVLHQDWLNGKEYKCKMSNKALPAPIEKTISKAKGQPREPQVYTLPPSRDELTKNQVSLTCLVKGFYPSDIAVEWESNGQPENNYKTTPPVLDSDGSFFLYSKLTVDKSRWQQGNVFSCSVMHEALHNHYTQESLSLSP
# light: not shown
# notes: Alterations introduced into IL6R-B3; also called P238D/V323M; copies: 2 + 2
# B2: IL6R-BP107/IL6R-L (antibody, human IgG1, kappa, name in EU numbering)
# heavy: B1 heavy with H270E, M325V
# light: not shown
# notes: Alterations introduced into IL6R-B3; also called P238D/H268E; copies: 2 + 2
# B3: IL6R-BP102/IL6R-L (antibody, human IgG1, kappa, name in EU numbering)
# heavy: B1 heavy with S269Q, M325V
# light: not shown
# notes: Alterations introduced into IL6R-B3; also called P238D/S267Q; copies: 2 + 2
# B4: IL6R-BP118/IL6R-L (antibody, human IgG1, kappa, name in EU numbering)
# heavy: B1 heavy with M325V, K328S
# light: not shown
# notes: Alterations introduced into IL6R-B3; also called P238D/K326S; copies: 2 + 2
# B5: IL6R-BP498/IL6R-L (antibody, human IgG1, kappa, name in EU numbering)
# heavy: B1 heavy with E235D, G239D, V266I, S269A, H270E, P273G, M325V, A332R, P398L
# light: not shown
# notes: copies: 2 + 2
# B6: IL6R-BP499/IL6R-L (antibody, human IgG1, kappa, name in EU numbering)
# heavy: B1 heavy with E235D, G239D, V266I, S269A, H270E, P273G, Y298D, M325V, A332R, P398L
# light: not shown
# notes: copies: 2 + 2
# B7: IL6R-BP479/IL6R-L (antibody, human IgG1, kappa, name in EU numbering)
# heavy: B1 heavy with E235D, G239D, V266I, V268L, S269A, H270E, P273G, M325V
# light: not shown
# notes: copies: 2 + 2
# B8: IL6R-BP496/IL6R-L (antibody, human IgG1, kappa, name in EU numbering)
# heavy: B1 heavy with E235D, G239D, V266I, S269A, H270E, P273G, Y298D, M325V
# light: not shown
# notes: copies: 2 + 2
# B9: IL6R-BP481/IL6R-L (antibody, human IgG1, kappa, name in EU numbering)
# heavy: B1 heavy with E235D, G239D, V266I, S269A, H270E, P273G, M325V
# light: not shown
# notes: copies: 2 + 2
# B10: IL6R-BP491/IL6R-L (antibody, human IgG1, kappa, name in EU numbering)
# heavy: B1 heavy with G239D, V266I, S269A, H270E, P273G, Y298D, M325V, A332R
# light: not shown
# notes: also called IL6R-491/IL6R-L; copies: 2 + 2
# B11: IL6R-BP487/IL6R-L (antibody, human IgG1, kappa, name in EU numbering)
# heavy: B1 heavy with E235D, G239D, V266I, S269A, H270E, P273G, M325V, A332R, P398M
# light: not shown
# notes: copies: 2 + 2
# B12: IL6R-BP489/IL6R-L (antibody, human IgG1, kappa, name in EU numbering)
# heavy: B1 heavy with E235D, G239D, V266I, S269A, H270E, P273G, Y298D, M325V, A332R, P398M
# light: not shown
# notes: copies: 2 + 2
# B13: IL6R-BP492/IL6R-L (antibody, human IgG1, kappa, name in EU numbering)
# heavy: B1 heavy with V266I, S269A, H270E, P273G, M325V
# light: not shown
# notes: copies: 2 + 2
# B14: IL6R-BP262/IL6R-L (antibody, human IgG1, kappa, name in EU numbering)
# heavy: B1 heavy with G239D, H270E, P273G, M325V
# light: not shown
# notes: copies: 2 + 2
# B15: IL6R-BP502/IL6R-L (antibody, human IgG1, kappa, name in EU numbering)
# heavy: B1 heavy with E235D, G239D, V266I, S269A, H270E, P273G, Y298D, M325V, A329G, A332R
# light: not shown
# notes: copies: 2 + 2
# B16: IL6R-BP497/IL6R-L (antibody, human IgG1, kappa, name in EU numbering)
# heavy: B1 heavy with E235D, G239D, V266I, S269A, H270E, P273G, M325V, A329G, A332R
# light: not shown
# notes: copies: 2 + 2
# B17: IL6R-BP484/IL6R-L (antibody, human IgG1, kappa, name in EU numbering)
# heavy: B1 heavy with E235D, G239D, S269A, H270E, E271D, P273G, M325V
# light: not shown
# notes: copies: 2 + 2
# B18: IL6R-BP269/IL6R-L (antibody, human IgG1, kappa, name in EU numbering)
# heavy: B1 heavy with G239D, H270E, P273G, Y298D, M325V
# light: not shown
# notes: copies: 2 + 2
# B19: IL6R-BP483/IL6R-L (antibody, human IgG1, kappa, name in EU numbering)
# heavy: B1 heavy with E235D, G239D, V268L, S269A, H270E, P273G, M325V
# light: not shown
# notes: copies: 2 + 2
# B20: IL6R-BP500/IL6R-L (antibody, human IgG1, kappa, name in EU numbering)
# heavy: B1 heavy with G239D, V266I, S269A, H270E, P273G, Y298D, M325V
# light: not shown
# notes: copies: 2 + 2
# Target: T3, human FcγRIIIa type V (allotype V158) extracellular domain with C-terminal His tag (human, UniProt P08637 17-208)
# T3 construct: also called FcγRIIIaV
# Assay: SPR (Biacore), antibody captured, FcγR analyte
# T3 sequence (P08637 other isoform, or with tags, fused parts or gaps): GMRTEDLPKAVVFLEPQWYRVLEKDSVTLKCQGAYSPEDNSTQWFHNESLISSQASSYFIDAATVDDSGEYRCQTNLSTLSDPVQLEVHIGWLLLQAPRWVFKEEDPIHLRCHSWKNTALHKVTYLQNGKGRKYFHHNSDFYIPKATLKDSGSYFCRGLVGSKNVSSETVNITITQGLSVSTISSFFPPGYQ
row,Kd,Binder
1,48 µM,B1
2,63 µM,B2
3,82 µM,B3
4,56 µM,B4

# Target: T1, FcγRIIb extracellular domain with …
# Assay: SPR; KD for FcγRIIaH divided by KD for FcγRIIb
row,KD(IIaH)/KD(IIb),Binder
1,564,B5
2,685,B6
3,268,B7
4,201,B8
5,350,B9
6,724,B10
7,730,B11
8,870,B12
9,678,B13
10,375,B14
11,352,B15
12,236,B16
13,241,B17
14,637,B18
15,231,B19
16,1030,B20

# Target: T1, FcγRIIb extracellular domain with …
# Assay: SPR; KD for FcγRIIaR divided by KD for FcγRIIb
row,KD(IIaR)/KD(IIb),Binder
1,30.3,B5
2,33.8,B6
3,16.1,B7
4,25.5,B8
5,20.5,B9
6,38.8,B10
7,33.8,B11
8,42.8,B12
9,38.8,B13
10,17,B14
11,29.5,B15
12,21,B16
13,17.1,B17
14,19.6,B18
15,29.9,B20

# Target: T2, FcγRIIa type R (allotype R131) …
# Assay: SPR; KD of IL6R-B3/IL6R-L divided by KD of the variant
row,KD(IIaR) OF PARENT POLYPEPTIDE/KD(IIaR) OF ALTERED POLYPEPTIDE,Binder
1,21.7,B5
2,22.3,B6
3,1.2,B7
4,2.3,B8
5,2.8,B9
6,9.3,B10
7,28.3,B11
8,25.7,B12
9,1.2,B13
10,0.5,B14
11,10.1,B15
12,12.9,B16
13,1.4,B17
14,0.5,B18
15,0.8,B19
16,1.5,B20

# Target: T1, FcγRIIb extracellular domain with …
# Assay: as above
row,KD(IIb) OF PARENT POLYPEPTIDE/KD(IIb) OF ALTERED POLYPEPTIDE,Binder
1,1880,B5
2,2120,B6
3,55.5,B7
4,168,B8
5,160,B9
6,1020,B10
7,2700,B11
8,3100,B12
9,131,B13
10,25.8,B14
11,810,B15
12,764,B16
13,67.3,B17
14,27.4,B18
15,39.7,B19
16,128,B20
